± gives the half width of the 95% confidence interval.

Data set [1] in a line: folding stability dG unfold from trypsin proteolysis; higher = more stable. In a few lines: (§1)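 Digests were run with trypsin and chymotrypsin at 11 concentrations in threefold dilutions, plus a no-protease condition, on designed mini-proteins in a PA-tagged cDNA display construct. The mini-proteins were under 80 residues, had no cysteine, and were kept only when AlphaFold2 dimer inter-PAE was above 15. After sequencing, Bayesian fitting of the counts gave K50, from which unfolding free energy was derived against a sequence-predicted unfolded-state K50 and a shared folded-state K50, per protease or combined.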

Data set [2] can be described thus: folding stability dG unfold from chymotrypsin proteolysis; higher = more stable. In a few lines:
as §1

Data set [3] can be described thus: folding stability dG unfold (combined trypsin and chymotrypsin); higher = more stable. In a few lines:
as §1

“SAGGSAGGSAGGKFEIVEVKEEYTLPNGKKVKVFTVKNKDTGKEITFIVDSNGNLKPYPSAGGSAGGSAGGS [r10_1123_TrROS_Hall]”: the “folding stability dG unfold” value came to 2.72 ± 0.13 kcal/mol in data set [1], 2.602 ± 0.025 kcal/mol in data set [2] and 2.65 ± 0.11 kcal/mol in data set [3].
The corresponding values for “SAGGSAGGSAGGKFKIVKVEKVKNENGEEYVRVYLYNKDGKPVKEFTMSKEELEKLLKELSAGGSAGGSAGG [r7_891_TrROS_Hall]” are 2.72 ± 0.11 kcal/mol, 2.96 ± 0.051 kcal/mol and 2.88 ± 0.15 kcal/mol.
The corresponding values for “SAGGSAGGSAGGKFKPGQTIKIKLKVKVKVNGKEYEFEKELEIKIKPKVTMSEEELKKKSAGGSAGGSAGGS [r10_175_TrROS_Hall]” are 0.169 ± 0.16 kcal/mol, 2.12 ± 0.09 kcal/mol and 1.39 ± 0.26 kcal/mol.
Taken in the same sequence, the figures for “SAGGSAGGSAGGKGKKVTIEIHFFFKSPQEMKHWANTLAKELPGLDVEIKVEWIPLEDMKSAGGSAGGSAGG [r7_465_TrROS]” were 2.06 ± 0.14 kcal/mol, 3.26 ± 0.14 kcal/mol and 2.75 ± 0.29 kcal/mol.
In the case of “SAGGSAGGSAGGKIIEVKEENGEVYLLVEVDGKKEVIKFPKGAKLEEIKVDVKEVKVLKPSAGGSAGGSAGG [r7_373_TrROS_Hall]”, the “folding stability dG unfold” value in data set [1] was -0.0364 ± 0.065 kcal/mol; in data set [2], 0.563 ± 0.1 kcal/mol; in data set [3], 0.539 ± 0.12 kcal/mol.
Turning to “SAGGSAGGSAGGKIKVPPGAIILVETESGEWKEIKPGDEIELKNSKVYIFNENGEKIELPSAGGSAGGSAGG [r7_54_TrROS_Hall]”, the results for the “folding stability dG unfold” value in data set [1], in data set [2] and in data set [3] were 0.82 ± 0.11 kcal/mol, 1.28 ± 0.092 kcal/mol and 1.28 ± 0.18 kcal/mol, respectively.
The corresponding values for “SAGGSAGGSAGGKIVIELPKELEGLTAEELAELLKKEFGEKGLKVTVVEKDGKLYLVIDSAGGSAGGSAGGS [r10_579_TrROS_Hall]” are 3.43 ± 0.25 kcal/mol, 3.34 ± 0.15 kcal/mol and 3.5 ± 0.24 kcal/mol.
For “SAGGSAGGSAGGKIVKIEFDKETKEIKITLPNGKKITISKEDLKNMKIEIKVYPKKKKKKSAGGSAGGSAGG [r7_98_TrROS_Hall]”, the “folding stability dG unfold” value turned out to be 0.774 ± 0.093 kcal/mol in data set [1], 2.45 ± 0.1 kcal/mol in data set [2] and 1.8 ± 0.35 kcal/mol in data set [3].
The corresponding values for “SAGGSAGGSAGGKKIIIVVPKEEMTEEELKKLIEELPPGEEIEIEIIVVPPPPPPPKEKKSAGGSAGGSAGG [r7_979_TrROS_Hall]” are 0.385 ± 0.077 kcal/mol, 1.92 ± 0.23 kcal/mol and 1.45 ± 0.27 kcal/mol.
The corresponding values for “SAGGSAGGSAGGKKITIKNENGETFTVTEIVKYDEETKEFYIKVEVNGKTYLFKVNLEDLSAGGSAGGSAGG [r7_236_TrROS_Hall]” are 1.81 ± 0.059 kcal/mol, 3.572 ± 0.024 kcal/mol and 3.2 ± 0.05 kcal/mol.
For “SAGGSAGGSAGGKKKIKVKVTVYNKNGKPVAEFEFEFETEEEALEAAKKLGLPVRVEKESAGGSAGGSAGGS [r10_958_TrROS_Hall]”, the “folding stability dG unfold” value in data set [1] is 1.71 ± 0.11 kcal/mol; in data set [2], 2.57 ± 0.069 kcal/mol; in data set [3], 2.28 ± 0.15 kcal/mol.
The corresponding values for “SAGGSAGGSAGGKKPKPIKVKVLKYYKNGKIEEKEYTFESPEDLEEFIKANPEVKVLEISSAGGSAGGSAGG [r11_802_TrMRF]” are 3.04 ± 0.34 kcal/mol, 4.76 ± 0.082 kcal/mol and 4.58 ± 0.17 kcal/mol.
Turning to “SAGGSAGGSAGGKKTIEIMIFYDPGDPERAKEKARDIANTLQARFPNVTVKITVFRFPNSAGGSAGGSAGGS [r10_223_TrROS]”, the “folding stability dG unfold” value in data set [1] is 1.87 ± 0.074 kcal/mol; in data set [2], 2.5 ± 0.048 kcal/mol; in data set [3], 2.25 ± 0.14 kcal/mol.
“SAGGSAGGSAGGKKTLKLPVKITPVKDGLLITLPDGTPILVPKNVTVETTDTTAYVTIGSAGGSAGGSAGGS [r10_305_TrMRF]”: the “folding stability dG unfold” value in data set [1] was 0.21 ± 0.067 kcal/mol; in data set [2], -0.375 ± 0.28 kcal/mol; in data set [3], 0.0124 ± 0.2 kcal/mol.
Taken in the same sequence, the figures for “SAGGSAGGSAGGKKTVKIEIEMPVEELLKKLKFPEGITSVRIIERDENGYLRIEIEVKLSAGGSAGGSAGGS [r10_352_TrROS_Hall]” were 1.55 ± 0.05 kcal/mol, 1.32 ± 0.078 kcal/mol and 1.31 ± 0.23 kcal/mol.
The corresponding values for “SAGGSAGGSAGGKKVIKVKVRIYPVDGSFEEKEVEAESLEELLEKVLEETHPESLIFIGSAGGSAGGSAGGS [r10_145_TrMRF]” are 0.912 ± 0.086 kcal/mol, 0.14 ± 0.067 kcal/mol and 0.59 ± 0.16 kcal/mol.
The corresponding values for “SAGGSAGGSAGGKKYEITRILSIEETEDGRIRILIETKTGIIEFDDISEIPPEIRELLGSAGGSAGGSAGGS [r10_748_TrMRF]” are 2.82 ± 0.075 kcal/mol, 2.668 ± 0.021 kcal/mol and 2.73 ± 0.055 kcal/mol.
Turning to “SAGGSAGGSAGGKKYKITVPFKTKDGSGKPITSNFGKKKLEEILKKHPELKPAIEKALKKSAGGSAGGSAGG [r7_637_TrMRF]”, the “folding stability dG unfold” value in data set [1] is -0.163 ± 0.33 kcal/mol; in data set [2], 1.37 ± 0.22 kcal/mol; in data set [3], 0.771 ± 0.29 kcal/mol.
With “SAGGSAGGSAGGKKYKPVKKIKVNGKTYTIIKKDGKYIIYDEKTKKKIVIKPGEKIKIKSAGGSAGGSAGGS [r10_559_TrROS_Hall]”, the “folding stability dG unfold” value in data set [1] amounted to 0.621 ± 0.045 kcal/mol; in data set [2], 2.21 ± 0.034 kcal/mol; in data set [3], 1.83 ± 0.34 kcal/mol.
As for “SAGGSAGGSAGGKLPPGQPIKATIEIYIFMISYDGGEPKIHEFPITIEHTFRLPDPDALSAGGSAGGSAGGS [r10_745_TrROS]”, the “folding stability dG unfold” value in data set [1] was found to be 2.14 ± 0.086 kcal/mol; in data set [2], 3.9 ± 0.091 kcal/mol; in data set [3] it was 3.42 ± 0.17 kcal/mol.
Taken in the same sequence, the figures for “SAGGSAGGSAGGKLTIVIEGMSEEEVKALAEALRKAGLEIEVTVVPVEVKEPELPEEEKSAGGSAGGSAGGS [r10_361_TrROS_Hall]” were 1.57 ± 0.081 kcal/mol, 2.29 ± 0.053 kcal/mol and 2.04 ± 0.12 kcal/mol.
Taken in the same sequence, the figures for “SAGGSAGGSAGGKPEIKLVEVENEDGSKLIKIEVNGKTIIIENVKTEEELRELLKKLGIESAGGSAGGSAGG [r7_91_TrROS_Hall]” were 2.08 ± 0.14 kcal/mol, 2.66 ± 0.17 kcal/mol and 2.64 ± 0.25 kcal/mol.
Consider “SAGGSAGGSAGGKPFKVLSVEPLEIGDKKYLRVRFEDGRVYEFPVSFDFGPDGNNVLPVESAGGSAGGSAGG [r7_931_TrMRF]”, for which the results for the “folding stability dG unfold” value in data set [1], in data set [2] and in data set [3] were 1.93 ± 0.041 kcal/mol, 2.59 ± 0.045 kcal/mol and 2.37 ± 0.043 kcal/mol, respectively.
The corresponding values for “SAGGSAGGSAGGKPITIKLEETGETATIDEDNGIITITNKDGSKYQITFKDGKLIIKKISAGGSAGGSAGGS [r10_568_TrROS_Hall]” are 1.99 ± 0.076 kcal/mol, 3.1 ± 0.056 kcal/mol and 2.79 ± 0.097 kcal/mol.
Taken in the same sequence, the figures for “SAGGSAGGSAGGKPKKVVIYIELTPEQEEAIKKGKSLEEVVEELIKEAEKKGLEVEIVGSAGGSAGGSAGGS [r10_890_TrROS_Hall]” were 1.2 ± 0.029 kcal/mol, 1.93 ± 0.067 kcal/mol and 1.62 ± 0.14 kcal/mol.
The corresponding values for “SAGGSAGGSAGGKPKPIKIEVYYDEKTGKLLVKVTLPNGKPVTLEFDDIGDIDEVKKAAGSAGGSAGGSAGG [r7_41_TrMRF]” are 1.36 ± 0.092 kcal/mol, 2.97 ± 0.16 kcal/mol and 2.44 ± 0.18 kcal/mol.
Consider “SAGGSAGGSAGGKPKTIRIKVYNEETGEVVTLEFPEGMSLEEVKKLLEALPNLKVVEIEPSAGGSAGGSAGG [r7_624_TrROS_Hall]”, for which the “folding stability dG unfold” value is 4.79 ± 0.41 kcal/mol in data set [1], 3.62 ± 0.11 kcal/mol in data set [2] and 4.45 ± 0.24 kcal/mol in data set [3].
Taken in the same sequence, the figures for “SAGGSAGGSAGGKPKVILLEGIKKIEVKDGKVTIEADEPVLLVIDEDGNVHIYRLPKEDLSAGGSAGGSAGG [r7_29_TrROS_Hall]” were 1.03 ± 0.07 kcal/mol, 1.38 ± 0.099 kcal/mol and 1.35 ± 0.11 kcal/mol.
The corresponding values for “SAGGSAGGSAGGKPTITITVELEDGYKATFEYNEETDKITVKIFNKNGELVEEFEFEIKSAGGSAGGSAGGS [r10_1044_TrROS_Hall]” are 1.81 ± 0.12 kcal/mol, 3.24 ± 0.21 kcal/mol and 2.87 ± 0.21 kcal/mol.
The corresponding values for “SAGGSAGGSAGGKPYIITLPNMKREVVFENSALVEFEDGSVIAAFENNVIVFFPVPEDALSAGGSAGGSAGG [r7_29_TrMRF]” are 0.121 ± 0.042 kcal/mol, 0.786 ± 0.093 kcal/mol and 0.578 ± 0.12 kcal/mol.
“SAGGSAGGSAGGKPYVIVPVTVRFTIDIPKDHPLLKELDINPEDVKIEFEFSFLGEVPASAGGSAGGSAGGS [r10_82_TrMRF]”: the “folding stability dG unfold” value in data set [1] is 2.66 ± 0.096 kcal/mol; in data set [2], 2.97 ± 0.089 kcal/mol; in data set [3], 2.95 ± 0.12 kcal/mol.
For the sequence “SAGGSAGGSAGGKTIVIEVKEEDIEEIIEAAKKAGADEVIIYNKKTNKKYKIKDGKIEPVSAGGSAGGSAGG [r7_564_TrROS_Hall]”, the “folding stability dG unfold” value in data set [1] worked out at 1.34 ± 0.032 kcal/mol; in data set [2], 2.02 ± 0.045 kcal/mol; in data set [3] it was 1.81 ± 0.1 kcal/mol.
The corresponding values for “SAGGSAGGSAGGKTIVLLDEETNELVTIEIDEETGEVKITVVRLKDGKLETKTETIKLPSAGGSAGGSAGGS [r10_756_TrROS_Hall]” are 1.93 ± 0.091 kcal/mol, 2.23 ± 0.21 kcal/mol and 2.07 ± 0.19 kcal/mol.
Taken in the same sequence, the figures for “SAGGSAGGSAGGKTLKLTLTLKVEVKETVTTTTADGTTEERPVKEVEVKLTATIDLSDLSAGGSAGGSAGGS [r10_355_TrROS_Hall]” were 3.04 ± 0.24 kcal/mol, 4.38 ± 0.2 kcal/mol and 4 ± 0.3 kcal/mol.
The corresponding values for “SAGGSAGGSAGGKTVVLFVDPKTKKVYILYPDGKIETLSPEELKNKPIIVKPVKLHPKAGSAGGSAGGSAGG [r7_98_TrMRF]” are 0.817 ± 0.024 kcal/mol, 1.86 ± 0.053 kcal/mol and 1.56 ± 0.053 kcal/mol.

(Values after the supplement of paper PMC12764529.)
